Key:
[1] = target: HLA-A*31:01; experiment: IEDB peptide-MHC binding, purified MHC/direct/fluorescence; filed as Kd, often an IC50 or EC50 that approximates it; ≥ and ≤ were set here for values at or beyond the usual limits of such assays; settings: source organism: Escherichia coli O157:H7
[2] = target: HLA-B*27:05; experiment: as above; settings: source organism: Escherichia coli O157:H7
[3] = target: HLA-B*15:17; experiment: as above; settings: source organism: Escherichia coli O157:H7
[4] = target: HLA-A*01:01; experiment: as above; settings: source organism: Escherichia coli O157:H7
[5] = target: HLA-B*48:01; experiment: as above; settings: source organism: Escherichia coli O157:H7
[6] = target: HLA-A*11:01; experiment: as above; settings: source organism: Escherichia coli O157:H7
[7] = target: HLA-B*18:01; experiment: as above; settings: source organism: Escherichia coli O157:H7
[8] = target: HLA-B*40:01; experiment: as above; settings: source organism: Escherichia coli O157:H7
[9] = target: HLA-B*58:01; experiment: as above; settings: source organism: Escherichia coli O157:H7
[10] = target: HLA-B*57:01; experiment: as above; settings: source organism: Escherichia coli O157:H7
[11] = target: HLA-A*02:01; experiment: as above; settings: source organism: Escherichia coli O157:H7
[12] = target: HLA-A*03:01; experiment: as above; settings: source organism: Escherichia coli O157:H7
[13] = target: HLA-B*15:01; experiment: as above; settings: source organism: Escherichia coli O157:H7
[14] = target: HLA-A*69:01; experiment: as above; settings: source organism: Escherichia coli O157:H7
[15] = target: HLA-B*07:02; experiment: as above; settings: source organism: Escherichia coli O157:H7
[16] = target: HLA-A*68:02; experiment: as above; settings: source organism: Escherichia coli O157:H7
[17] = target: HLA-B*40:13; experiment: IEDB peptide-MHC binding, purified MHC/competitive/fluorescence; filed as Kd, often an IC50 or EC50 that approximates it; ≥ and ≤ were set here for values at or beyond the usual limits of such assays; settings: source organism: Escherichia coli O139:H28 str. E24377A
[18] = target: HLA-A*32:07; experiment: as above; settings: source organism: Escherichia coli O139:H28 str. E24377A
[19] = target: HLA-B*83:01; experiment: as above; settings: source organism: Escherichia coli O139:H28 str. E24377A
[20] = target: HLA-B*15:42; experiment: as above; settings: source organism: Escherichia coli O139:H28 str. E24377A
[21] = target: HLA-B*39:01; experiment: as above; settings: source organism: Escherichia coli O139:H28 str. E24377A
[22] = target: HLA-B*45:06; experiment: as above; settings: source organism: Escherichia coli O139:H28 str. E24377A

Work on REWGWRIPF yielded a Kd [1] of no less than 20 µM, a Kd [2] of 590 nM and a Kd [3] of no less than 20 µM. The Kd [4] was no less than 20 µM, the Kd [5] was 149 nM and the Kd [6] was no less than 20 µM. The Kd [7] was no more than 1 nM, the Kd [8] was no more than 1 nM and the Kd [9] was no less than 20 µM. It also gave a Kd [10] of no less than 20 µM, a Kd [11] of no less than 20 µM and a Kd [12] of no less than 20 µM. It also gave a Kd [13] of 45 nM, a Kd [14] of no less than 20 µM and a Kd [15] of no less than 20 µM. For the same sequence, the Kd [16] was no less than 20 µM, the Kd [17] was 61.1 nM and the Kd [18] was 13.5 nM. The Kd [19] was no less than 5 µM, the Kd [20] was no less than 5 µM and the Kd [21] was 135 nM. It also gave a Kd [22] of no less than 5 µM.

From the Immune Epitope Database (IEDB)
